Assay [1] deals with dsRed-tagged RetGC1 (human) (UniProt Q02846). Put plainly: ratio of GFP and dsRed tag fluorescence in co-transfected cells.
Assay [2] has as its target wild type recombinant human RetGC1 (human) (UniProt Q02846). Put plainly: co-localisation of GCAP1-GFP with RetGC1 in co-transfected cells.
Another assay deals with R838S RetGC1 (human) (UniProt Q02846). Described as above.

As for “GFP-tagged bovine GCAP1 (from UniProt P46065 1-205) (natural protein)”, the stoichiometry N (GCAP1 per RetGC1) in assay [1] was found to be 0.86. The stoichiometry N (usually a count of units in the complex or per binding partner) in assay [1] (scale: molar ratio between the two proteins at saturation) turned out to be 1.01. For the same substance, the cell:nucleus GCAP1-GFP fluorescence intensity ratio amounted to 10.6 in assay [2] and 9.3 with R838S RetGC1 (human).

The values are drawn from PMC2827208.
